Results on seven molecules are retold here after publication PMC11795597, “The NADH-dependent flavin reductase ThdF follows an ordered sequential mechanism though crystal structures reveal two FAD molecules in the active site” (The Journal of Biological Chemistry, 2024).

In data set [1] the target is ThdF after in situ proteolysis with elastase, as crystallised (crystal forms 1 and 2) (Streptomyces albogriseolus). Briefly: crystal structure; ThdF with elastase (in situ proteolysis), sitting drop, 20 °C; crystal form 1 (P212121) and form 2 (P21) with two FAD per chain, and form 1 soaked with NADH and dithionite; four molecules per asymmetric unit.
Data set [2] concerns the target T1, ThdF (Streptomyces albogriseolus, UniProt A0A1B1V585).
T1 construct: apoThdF (full length) for Kd; elastase-digested ThdF, residues about 7-167 built, for crystals
T1 sequence (A0A1B1V585 1-193): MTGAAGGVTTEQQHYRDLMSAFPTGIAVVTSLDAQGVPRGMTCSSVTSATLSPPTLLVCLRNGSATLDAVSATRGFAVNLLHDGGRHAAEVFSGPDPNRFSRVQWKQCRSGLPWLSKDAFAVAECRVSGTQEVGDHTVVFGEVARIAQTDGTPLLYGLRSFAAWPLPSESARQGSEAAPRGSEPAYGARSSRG
Kind of data set: fluorescence anisotropy; crystal structures ([…] and […] Å) with two FAD per chain. The class given is binding. Background: In fluorescence polarisation assays a small probe gives low polarisation when free and higher when bound to something large.

Data set [3] has as its target T2, ThdF (Streptomyces albogriseolus, UniProt A0A1B1V585). Briefly: steady-state inhibition kinetics (NADH turnover at […] nm). The class given is biochemical.
The target of data set [4] is T2, ThdF. Briefly: steady-state product inhibition kinetics. The class given is biochemical.
Substrate in data set [5]: NC(=O)C1=CN([C@@H]2O[C@H](COP(=O)(O)OP(=O)(O)OC[C@H]3O[C@@H](n4cnc5c(N)ncnc54)[C@H](O)[C@@H]3O)[C@@H](O)[C@H]2O)C=CC1
Briefly: purified protein.

Substrate in data set [6]: Cc1cc2nc3c(=O)[nH]c(=O)nc-3n(C[C@H](O)[C@H](O)[C@H](O)COP(=O)(O)O)c2cc1C
Briefly: steady-state kinetics, KM as variable substrate. Type of data set: biochemical, Streptomyces albogriseolus. Conditions: NADH.

Data set [7] concerns the molecule itself. Kind of data set: crystal structure; full-length ThdF without protease, initial screening, 2.9 Å; not fully refined and not deposited.

For orientation: stoichiometry N means a count of units in the complex or per binding partner. As for “ThdF after in situ proteolysis with elastase, as crystallised (crystal forms 1 and 2) (from UniProt A0A1B1V585 6-171) (domain or fragment)”, the stoichiometry N in data set [1] turned out to be 2.
A word on the Kd: it is the free concentration of one partner at which half of the binding sites on the other are occupied at equilibrium, for simple one-to-one binding. On to `Cc1cc2nc3c(=O)[nH]c(=O)nc-3n(C[C@H](O)[C@H](O)[C@H](O)COP(=O)(O)OP(=O)(O)OC[C@H]3O[C@@H](n4cnc5c(N)ncnc54)[C@H](O)[C@@H]3O)c2cc1C` [FAD], for which binding in data set [2] was put at a Kd of 6.8 ± 0.2 µM.
`Nc1ncnc2c1ncn2[C@@H]1O[C@H](COP(=O)(O)O)[C@@H](O)[C@H]1O` [AMP]: the “steady-state inhibition kinetics (NADH turnover at 340 nm)” value in data set [3] is given as “The lines intersecting on the ordinate indicate competitive inhibition of NADH by AMP”.
Turning to `NC(=O)c1ccc[n+]([C@@H]2O[C@H](COP(=O)([O-])O)[C@@H](O)[C@H]2O)c1` [NMN], the “steady-state inhibition kinetics (NADH turnover at 340 nm)” value in data set [3] is “The NADH-dependent measurement with NMN showed intersecting lines on the ordinate, confirming competitive inhibition toward NADH”.
Regarding `NC(=O)c1ccc[n+]([C@@H]2O[C@H](COP(=O)([O-])OP(=O)(O)OC[C@H]3O[C@@H](n4cnc5c(N)ncnc54)[C@H](O)[C@@H]3O)[C@@H](O)[C@H]2O)c1` [NAD^+], the “steady-state product inhibition kinetics” value in data set [4] was “For both substrates, NAD^+ was found to produce a noncompetitive inhibition pattern”.

B1: ThdF (Streptomyces albogriseolus) (protein)
chain: GGVTTEQQHYRDLMSAFPTGIAVVTSLDAQGVPRGMTCSSVTSATLSPPTLLVCLRNGSATLDAVSATRGFAVNLLHDGGRHAAEVFSGPDPNRFSRVQWKQCRSGLPWLSKDAFAVAECRVSGTQEVGDHTVVFGEVARIAQTDGTPLLYGLRSFAAWPLPSESA
By Km is commonly meant the concentration of substrate that gives half-maximal velocity. The kcat is the number of substrate molecules converted per active site and unit of time at saturation. For the molecule B1, the Km in data set [5] amounted to 19.5 ± 5.6 µM. For the same molecule, the kcat in data set [5] (FAD binds instead of the stacked FAD, R16 contacts the NMN ribose, H136 of the GDH motif the nicotinamide, S48 of the second protomer) came to 0.26 s⁻¹.

B2: NADH-dependent flavin reductase ThdF from Streptomyces albogriseolus, full length, His6-tag removed by TEV protease (enzyme, UniProt A0A1B1V585 1-193, looked up)
chain: MTGAAGGVTTEQQHYRDLMSAFPTGIAVVTSLDAQGVPRGMTCSSVTSATLSPPTLLVCLRNGSATLDAVSATRGFAVNLLHDGGRHAAEVFSGPDPNRFSRVQWKQCRSGLPWLSKDAFAVAECRVSGTQEVGDHTVVFGEVARIAQTDGTPLLYGLRSFAAWPLPSESARQGSEAAPRGSEPAYGARSSRG
notes: flavin reductase ThdF of the thienodoline biosynthetic gene cluster, Streptomyces albogriseolus; 193 residues (truncation to 1-168 removed amino acids 169-193); residual amino acids from TEV protease digestion are left at the N terminus; Codon-optimised synthetic gene in pETM-11; copurifies with FAD (occupancy about 124%); the PDB entries 9fd4-9fd6 come from this protein after elastase digestion; …
In the case of B2, in data set [6], the Michaelis constant (Km) is 0.28 ± 0.07 µM and the kcat was found to be 0.2 ± 0.08 s⁻¹. Further, the “stoichiometry N” value in data set [7] amounted to 2.
